Results: patent US7514397

Target: viral gp41 of HIV-1IIIB (HIV-1IIIB)
Assay: cell-based or functional assay

Work on “M41-PΔ178, M41-P fusion protein from which the DP-178 region has been deleted (gp41 540-642, Ile578Pro) (from UniProt P03377 540-642)” yielded a Cell fusion (IC90) greater than 50 µM and an HIV infectivity (IC90) greater than 8 µM.

“M41, maltose binding protein fusion with the extracellular domain of HIV-1 gp41 (540-686) (from UniProt P03377 540-686)” gave a Cell fusion (IC90) greater than 50 µM and an HIV infectivity (IC90) greater than 16 µM.

In the case of “M41-P, M41 fusion protein with an Ile to Pro mutation at position 578 (from UniProt P0AEX9 27-392; P03377 540-686)”, the Cell fusion (IC90) is reported as 0.083 µM and the HIV infectivity (IC90) is reported as 0.066 µM.
